Laboratory results reported in patent US20250163167A1 (SYNTHEKINE, published 2025).

T1: human IL-10 receptor (hIL-10R alpha and beta chains) on HEK-Blue IL-10 reporter cells (human, UniProt Q13651 22-578; Q08334 20-325)
T1 sequence 1: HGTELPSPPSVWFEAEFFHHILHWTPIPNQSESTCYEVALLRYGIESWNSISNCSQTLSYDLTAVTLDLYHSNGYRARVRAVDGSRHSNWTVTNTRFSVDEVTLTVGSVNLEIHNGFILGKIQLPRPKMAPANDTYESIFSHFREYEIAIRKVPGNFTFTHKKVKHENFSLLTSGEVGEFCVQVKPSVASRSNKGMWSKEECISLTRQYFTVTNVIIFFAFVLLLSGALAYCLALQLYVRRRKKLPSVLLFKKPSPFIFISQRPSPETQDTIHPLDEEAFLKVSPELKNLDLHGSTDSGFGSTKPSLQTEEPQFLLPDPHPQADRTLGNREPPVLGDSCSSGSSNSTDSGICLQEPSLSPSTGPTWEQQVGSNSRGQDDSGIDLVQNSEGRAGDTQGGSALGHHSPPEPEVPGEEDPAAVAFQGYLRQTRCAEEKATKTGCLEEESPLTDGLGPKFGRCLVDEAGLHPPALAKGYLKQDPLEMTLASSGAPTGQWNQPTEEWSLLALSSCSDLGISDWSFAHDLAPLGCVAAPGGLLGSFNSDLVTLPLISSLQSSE
T1 sequence 2: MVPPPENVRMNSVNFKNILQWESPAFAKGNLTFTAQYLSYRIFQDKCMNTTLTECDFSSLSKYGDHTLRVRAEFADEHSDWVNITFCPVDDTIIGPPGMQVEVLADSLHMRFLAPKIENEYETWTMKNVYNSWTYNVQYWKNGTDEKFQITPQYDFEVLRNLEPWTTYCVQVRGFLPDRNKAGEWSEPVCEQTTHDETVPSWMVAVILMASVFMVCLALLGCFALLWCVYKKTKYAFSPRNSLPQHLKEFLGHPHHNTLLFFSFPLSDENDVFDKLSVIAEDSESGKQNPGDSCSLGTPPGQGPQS


Biological target: T1, human IL-10 receptor (hIL-10R alpha and …)
Assay: cell-based or functional assay

Binder | Abs 630 (25 nM) | Abs 630 (100 nM)
IL10R binding molecule of SEQ ID NO: 337 (bispecific antibody) QVQLQESGGGSVEAGGSLRLSCAASGYTHSSYCMGWFRQAPGKEREGVAAIDVDGSTTYADSVKGRFTISKDNAKNTLYLQMNSLKPEDTGMYYCAAEFADCSSNYFLPPGAVRYWGQGTQVTVSSGGGSQVQLQESGGGSVQAGGSLRLSCTVSGYTYSSNCMGWFRQAPGKEREGVATIYTGGGNTYYADSVKGRFTISQDNAKNTVYLQMNNLKPEDTAMYYCAAEPLSRVYGGSCPTPTFDYWGQGTQVTVSSASHHHHHH | 0.49 Abs 630 | 0.4 Abs 630
IL10R binding molecule of SEQ ID NO: 263 (bispecific antibody) QVQLQESGGGSVQAGGSLRLSCAASRFTYSSYCMGWFRQAPGKEREGVASIDSDGSTSYTDSVKGRFTISKDNAKNTLYLQMNSLKPEDTAMYYCALDLMSTVVPGFCGFLLSAGMDYWGKGTQVTVSSGGGSQVQLQESGGGSVQAGGSLRLSCAASGYTYSSGCMGWFRQAPGKEREAVAAINSDGSTSYADSVKGRFTISKDNAKNTLYLQMNSLKPEDTAMYYCAAEPYCSGGYPRWSVAEFGYWGQGTQVTVSSASHHHHHH | 1.77 Abs 630 | 1.02 Abs 630
IL10R binding molecule of SEQ ID NO: 341 (bispecific antibody) QVQLQESGGGSVQAGGSLRLSCAASGYSYSSYCMGWFRQAPGKEREGVATIDSDGMTRYADSVKGRFTISKDNAKNTLYLQMNSLKPEDTAMYYCAAPLYDCDSGAVGRNPPYWGQGTQVTVSSGGGSQVQLQESGGGSVQAGGSLRLSCAASRFTYSSYCMGWFRQAPGKEREGVASIDSDGSTSYTDSVKGRFTISKDNAKNTLYLQMNSLKPEDTAMYYCALDLMSTVVPGFCGFLLSAGMDYWGKGTQVTVSSASHHHHHH | 0.6 Abs 630 | 0.48 Abs 630
IL10R binding molecule of SEQ ID NO: 338 (bispecific antibody) QVQLQESGGGSVEAGGSLRLSCAASGYTHSSYCMGWFRQAPGKEREGVAAIDVDGSTTYADSVKGRFTISKDNAKNTLYLQMNSLKPEDTGMYYCAAEFADCSSNYFLPPGAVRYWGQGTQVTVSSGGGSQVQLQESGGGSVQAGGSLRLSCGASGYTYSSYCMGWFRQVPGKEREGVAVIDSDGSTSYADSVKGRFTISKDNGKNTLYLQMNSLKPEDTAMYYCAADLGHYRPPCGVLYLGMDYWGKGTQVTVSSASHHHHHH | 0.51 Abs 630 | 0.41 Abs 630
IL10R binding molecule of SEQ ID NO: 336 (bispecific antibody) QVQLQESGGGSVEAGGSLRLSCAASGYTHSSYCMGWFRQAPGKEREGVAAIDVDGSTTYADSVKGRFTISKDNAKNTLYLQMNSLKPEDTGMYYCAAEFADCSSNYFLPPGAVRYWGQGTQVTVSSGGGSQVQLQESGGGSVQAGGSLRLSCAVSGYAYSTYCMGWFRQAPGKEREGVAAIDSGGSTSYADSVKGRFTISKDNAKNTLYLRMNSLKPEDTAMYYCAAVPPPPDGGSCLFLGPEIKVSKADFRYWGQGTQVTVSSASHHHHHH | 0.54 Abs 630 | 0.45 Abs 630
IL10R binding molecule of SEQ ID NO: 342 (bispecific antibody) QVQLQESGGGSVQAGGSLRLSCAASGYSYSSYCMGWFRQAPGKEREGVATIDSDGMTRYADSVKGRFTISKDNAKNTLYLQMNSLKPEDTAMYYCAAPLYDCDSGAVGRNPPYWGQGTQVTVSSGGGSQVQLQESGGGSVQAGGSLRLSCAASGYTYSMYCMGWFRQAPGKEREGVAQINSDGSTSYADSVKGRFTISKDNAKNTLYLQMNSLKPEDTAMYYCAADSRVYGGSWYERLCGPYTYEYNYWGQGTQVTVSSASHHHHHH | 0.45 Abs 630 | 0.36 Abs 630
IL10R binding molecule of SEQ ID NO: 340 (bispecific antibody) QVQLQESGGGSVQAGGSLRLSCAASGYSYSSYCMGWFRQAPGKEREGVATIDSDGMTRYADSVKGRFTISKDNAKNTLYLQMNSLKPEDTAMYYCAAPLYDCDSGAVGRNPPYWGQGTQVTVSSGGGSQVQLQESGGGSVQAGGSLRLSCAASRYLYSIDYMAWFRQSPGKEREPVAVIYTASGATFYPDSVKGRFTISQDNAKMTVYLQMNSLKSEDTAMYYCAAVRKTDSYLFDAQSFTYWGQGTQVTVSSASHHHHHH | 0.46 Abs 630 | 0.51 Abs 630
IL10R binding molecule of SEQ ID NO: 343 (bispecific antibody) QVQLQESGGGSVQAGGSLRLSCAASGYSYSSYCMGWFRQAPGKEREGVATIDSDGMTRYADSVKGRFTISKDNAKNTLYLQMNSLKPEDTAMYYCAAPLYDCDSGAVGRNPPYWGQGTQVTVSSGGGSQVQLQESGGGSVQAGGSLRLSCAVSGYAYSTYCMGWFRQAPGKEREGVAAIDSGGSTSYADSVKGRFTISKDNAKNTLYLRMNSLKPEDTAMYYCAAVPPPPDGGSCLFLGPEIKVSKADFRYWGQGTQVTVSSASHHHHHH | 0.46 Abs 630 | 0.37 Abs 630
IL10R binding molecule of SEQ ID NO: 335 (bispecific antibody) QVQLQESGGGSVEAGGSLRLSCAASGYTHSSYCMGWFRQAPGKEREGVAAIDVDGSTTYADSVKGRFTISKDNAKNTLYLQMNSLKPEDTGMYYCAAEFADCSSNYFLPPGAVRYWGQGTQVTVSSGGGSQVQLQESGGGSVQAGGSLRLSCAASGYTYSMYCMGWFRQAPGKEREGVAQINSDGSTSYADSVKGRFTISKDNAKNTLYLQMNSLKPEDTAMYYCAADSRVYGGSWYERLCGPYTYEYNYWGQGTQVTVSSASHHHHHH | 0.5 Abs 630 | 0.44 Abs 630
IL10R binding molecule of SEQ ID NO: 339 (bispecific antibody) QVQLQESGGGSVEAGGSLRLSCAASGYTHSSYCMGWFRQAPGKEREGVAAIDVDGSTTYADSVKGRFTISKDNAKNTLYLQMNSLKPEDTGMYYCAAEFADCSSNYFLPPGAVRYWGQGTQVTVSSGGGSQVQLQESGGGSVQAGGSLRLSCAASGYSNCSYDMTWYRQAPGKEREFVSAIHSDGSTRYADSVKGRFFISQDNAKNTVYLQMNSLKPEDTAMYYCKTDPLHCRAHGGSWYSVRANYWGQGTQVTVSSASHHHHHH | 0.49 Abs 630 | 0.42 Abs 630

The remaining lines, values ahead:

Abs 630 (25 nM) | Abs 630 (100 nM) | Binder
0.46 Abs 630 | 0.38 Abs 630 | IL10R binding molecule of SEQ ID NO: 349 (bispecific antibody) QVQLQESGGGSVQTGGSLRLSCAASGYTYLRGCMGWFRQAPGKEREGVAVMDVVGDRRSYIDSVKGRFTISRDNAANSVYLQMDNLKPEDTAMYYCTAGPNCVGWRSGLDYWGQGTQVTVSSGGGSQVQLQESGGGSVQAGGSLRLSCAASGYTYSMYCMGWFRQAPGKEREGVAQINSDGSTSYADSVKGRFTISKDNAKNTLYLQMNSLKPEDTAMYYCAADSRVYGGSWYERLCGPYTYEYNYWGQGTQVTVSSASHHHHHH
0.46 Abs 630 | 0.36 Abs 630 | IL10R binding molecule of SEQ ID NO: 348 (bispecific antibody) QVQLQESGGGSVQTGGSLRLSCAASGYTYLRGCMGWFRQAPGKEREGVAVMDVVGDRRSYIDSVKGRFTISRDNAANSVYLQMDNLKPEDTAMYYCTAGPNCVGWRSGLDYWGQGTQVTVSSGGGSQVQLQESGGGSVQAGGSLRLSCAASRFTYSSYCMGWFRQAPGKEREGVASIDSDGSTSYTDSVKGRFTISKDNAKNTLYLQMNSLKPEDTAMYYCALDLMSTVVPGFCGFLLSAGMDYWGKGTQVTVSSASHHHHHH
0.5 Abs 630 | 0.43 Abs 630 | IL10R binding molecule of SEQ ID NO: 344 (bispecific antibody) QVQLQESGGGSVQAGGSLRLSCAASGYSYSSYCMGWFRQAPGKEREGVATIDSDGMTRYADSVKGRFTISKDNAKNTLYLQMNSLKPEDTAMYYCAAPLYDCDSGAVGRNPPYWGQGTQVTVSSGGGSQVQLQESGGGSVQAGGSLRLSCTVSGYTYSSNCMGWFRQAPGKEREGVATIYTGGGNTYYADSVKGRFTISQDNAKNTVYLQMNNLKPEDTAMYYCAAEPLSRVYGGSCPTPTFDYWGQGTQVTVSSASHHHHHH
0.52 Abs 630 | 0.44 Abs 630 | IL10R binding molecule of SEQ ID NO: 345 (bispecific antibody) QVQLQESGGGSVQAGGSLRLSCAASGYSYSSYCMGWFRQAPGKEREGVATIDSDGMTRYADSVKGRFTISKDNAKNTLYLQMNSLKPEDTAMYYCAAPLYDCDSGAVGRNPPYWGQGTQVTVSSGGGSQVQLQESGGGSVQAGGSLRLSCGASGYTYSSYCMGWFRQVPGKEREGVAVIDSDGSTSYADSVKGRFTISKDNGKNTLYLQMNSLKPEDTAMYYCAADLGHYRPPCGVLYLGMDYWGKGTQVTVSSASHHHHHH
0.45 Abs 630 | 0.35 Abs 630 | IL10R binding molecule of SEQ ID NO: 347 (bispecific antibody) QVQLQESGGGSVQTGGSLRLSCAASGYTYLRGCMGWFRQAPGKEREGVAVMDVVGDRRSYIDSVKGRFTISRDNAANSVYLQMDNLKPEDTAMYYCTAGPNCVGWRSGLDYWGQGTQVTVSSGGGSQVQLQESGGGSVQAGGSLRLSCAASRYLYSIDYMAWFRQSPGKEREPVAVIYTASGATFYPDSVKGRFTISQDNAKMTVYLQMNSLKSEDTAMYYCAAVRKTDSYLFDAQSFTYWGQGTQVTVSSASHHHHHH
0.43 Abs 630 | 0.35 Abs 630 | IL10R binding molecule of SEQ ID NO: 346 (bispecific antibody) QVQLQESGGGSVQAGGSLRLSCAASGYSYSSYCMGWFRQAPGKEREGVATIDSDGMTRYADSVKGRFTISKDNAKNTLYLQMNSLKPEDTAMYYCAAPLYDCDSGAVGRNPPYWGQGTQVTVSSGGGSQVQLQESGGGSVQAGGSLRLSCAASGYSNCSYDMTWYRQAPGKEREFVSAIHSDGSTRYADSVKGRFFISQDNAKNTVYLQMNSLKPEDTAMYYCKTDPLHCRAHGGSWYSVRANYWGQGTQVTVSSASHHHHHH
